Results as given in patent publication US20240254244A1 (QYUNS THERAPEUTICS, published 2024).

T1: Human IFNAR1 on cells (HEK Blue IFNα/β cells, Daudi cells, human whole blood) (human, UniProt P17181 28-557)
T1 sequence (looked up): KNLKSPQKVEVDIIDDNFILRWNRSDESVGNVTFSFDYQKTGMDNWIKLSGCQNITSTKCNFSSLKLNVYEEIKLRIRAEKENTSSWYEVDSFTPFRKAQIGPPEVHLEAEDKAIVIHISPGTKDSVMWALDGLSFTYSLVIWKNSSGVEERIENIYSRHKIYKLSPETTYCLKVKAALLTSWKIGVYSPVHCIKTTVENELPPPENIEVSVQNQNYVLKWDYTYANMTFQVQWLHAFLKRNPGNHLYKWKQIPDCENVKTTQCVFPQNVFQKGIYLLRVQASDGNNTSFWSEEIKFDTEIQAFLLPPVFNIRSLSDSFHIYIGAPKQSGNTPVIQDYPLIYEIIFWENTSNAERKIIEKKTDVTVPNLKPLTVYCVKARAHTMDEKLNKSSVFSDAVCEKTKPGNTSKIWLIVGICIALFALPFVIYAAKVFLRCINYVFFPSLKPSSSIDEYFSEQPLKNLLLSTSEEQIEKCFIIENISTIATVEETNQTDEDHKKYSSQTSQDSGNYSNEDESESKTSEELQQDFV

T2: Human interferon alpha receptor 1 (IFNAR1) (human, UniProt P17181 28-436)
T2 construct: Soluble antigen flowed over captured antibody in Biacore; also called human IFNAR1; Human Interferon alpha/beta Receptor 1
T2 sequence: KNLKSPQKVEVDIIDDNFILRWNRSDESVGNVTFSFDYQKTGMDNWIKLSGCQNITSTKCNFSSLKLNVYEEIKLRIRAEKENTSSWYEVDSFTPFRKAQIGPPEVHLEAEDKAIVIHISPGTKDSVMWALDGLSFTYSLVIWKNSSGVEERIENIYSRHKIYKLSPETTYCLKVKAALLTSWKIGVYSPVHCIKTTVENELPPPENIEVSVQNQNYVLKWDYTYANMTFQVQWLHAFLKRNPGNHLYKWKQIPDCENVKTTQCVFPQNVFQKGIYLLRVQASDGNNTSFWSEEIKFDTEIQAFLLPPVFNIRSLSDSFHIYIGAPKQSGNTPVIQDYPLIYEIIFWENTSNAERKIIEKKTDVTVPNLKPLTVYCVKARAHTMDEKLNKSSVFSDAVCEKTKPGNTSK

B1: QX006N (HZD1203-45-IgG4.1) (antibody, V domains shown)
VH: EVQLVESGGGLVQPGGSLRLSCAASGFSLSSYYMTWVRQAPGKGLEWVSVINVYGGTYYASWAKGRFTISRDNSKNTLYLQMNSLRAEDTAVYYCAREDVAVYMAIDLWGQGTLVTVSS
VL: AIQMTQSPSSLSASVGDRVTITCQASQSISNQLSWYQQKPGKAPKLLIYDASSLASGVPSRFSGSRSGTKFTLTISSLQPEDFATYYCLGIYGDGADDGIAFGGGTKVEIKR
notes: Humanized rabbit antibody (clone 1203#) with human IgG4 constant region, expressed in ExpiCHO-S cells; also called anti-human interferon alpha receptor 1 (IFNAR1) monoclonal antibody of the present application
B2: Anifrolumab (antibody, V domains shown)
VH: EVQLVQSGAEVKKPGESLKISCKGSGYIFTNYWIAWVRQMPGKGLESMGIIYPGDSDIRYSPSFQGQVTISADKSITTAYLQWSSLKASDTAMYYCARHDIEGFDYWGRGTLVTVSS
VL: EIVLTQSPGTLSLSPGERATLSCRASQSVSSSFFAWYQQKPGQAPRLLIYGASSRATGIPDRLSGSGSGTDFTLTITRLEPEDFAVYYCQQYDSSAITFGQGTRLEIKR

Key:
[1] = molecular target: T1, Human IFNAR1 on cells (HEK Blue IFNα/β …); experiment: cell-based or functional assay
[2] = molecular target: T2, Human interferon alpha receptor 1 …; experiment: SPR, Biacore T200, antibody captured on Protein A chip, antigen as analyte, 25 C, 1:1 model, mean of three
Procedure: BiacoreT200 was used to detect the affinity between QX006N (HZD1203-45-IgG4.1) and human IFNAR1. All processes were performed at 25° C. A commercial Protein A chip was used to immobilize an appropriate amount of antibody through the capture method so that Rmax was around 50 RU and the capture flow rate was 10 μl/min. The antigen was gradient diluted, the flow rate of the instrument was switched to 30 μl/min, flowed through the reference channel and the fixed antibody channel in order of concentration from low to high, and flowed through buffer as the negative control. The chip was regenerated with pH1.5 glycine after each binding and dissociation was completed. The built-in analysis software of the instrument was used to select the 1:1 binding model in the Kinetics option for fitting, and the antibody's binding rate constant kₐ, dissociation rate constant kd, and dissociation equilibrium constant KD values were calculated.
The data in the table were: each sample was tested three times and the average value was calculated.

Row | Binder | EC50 of neutralising the effect of interferon (0.8 ng/ml IFNα.2b) on Daudi cell proliferation (CellTiter-Glo) [1] | IC50 of inhibiting interferon (0.2 ng/ml IFNα.2b) induced STAT1/2 phosphorylation in HEK Blue IFNα/β reporter cells [1] | IC50 of inhibiting interferon (8 ng/ml IFNα.2b with 40 ng/ml TNF-α) induced release of CXCL10/IP10 from human whole blood [1] | Kd [2] | koff [2] | kon [2]
1 | B1 | 0.0299 µg/mL | 0.00523 µg/mL | 0.698 µg/mL | 0.108 nM | 3.76e-05 s⁻¹ | 347000 M⁻¹ s⁻¹
2 | B2 | 0.0317 µg/mL | 0.00443 µg/mL | 0.562 µg/mL | – | – | –
